Data: patent US20230390340A1

Biological target: ApoE dependent receptors (on bEND.3 mouse endothelial cells) (mouse)
Experiment: cell-based or functional assay

**Q.** With “IDS.ApoEII (human iduronate-2-sulfatase with C-terminal invariant flexible linker and ApoE receptor-binding tandem repeat) (from UniProt P22304 26-550) (enzyme)” as the substance, how does the uptake of IDS.ApoEII into bEND.3 cells after 24 hours, following blocking with human recombinant ApoE read?
**A.** Its uptake of IDS.ApoEII into bEND.3 cells after 24 hours, following blocking with human recombinant ApoE is 30%.
